The target of assay [1] is T1, streptavidin (UniProt P22629 37-163, limits assumed).
T1 construct: Used as phycoerythrin conjugate or on coated beads; also called SA; streptavidin-phycoerythrin
The experiment in a line: apparent whole-cell KD, flow cytometry with streptavidin-phycoerythrin. On the procedure: (§1) To obtain equilibrium binding curves, cells were labeled over a range of concentrations, e.g., about 0.1 to about 200 nM, of fluorescently conjugated target proteins (streptavidin-phycoerythrin or CRP-Alexa Fluor® 488) and analyzed by flow cytometry, as above. The corresponding mean fluorescence versus concentration data were fit to a monovalent binding isotherm to obtain the apparent KD. Dissociation rates of streptavidin-binding clones were measured in the presence of about 1 to about 2 μM biotin. Cells were labeled with 50 nM streptavidin-phycoerythrin for 30 minutes at room temperature. The cells were then pelleted, resuspended in PBS with biotin, and immediately analyzed by flow cytometry. Fluorescence data were collected continuously for about five minutes. The dissociation rate constants were then determined as described previously. See Daugherty, P. S., et al. (1998) Protein Eng. 11(9):825-832, which is herein incorporated by reference.
In general terms: A flow cytometer gives signals particle by particle.

Assay [2] addresses T1, streptavidin. The experiment in a line: whole-cell dissociation by flow cytometry, 1-2 uM biotin as competitor. Here is the method:
The apparent binding affinities of a subset of the selected peptides were determined using flow cytometric analysis. […] See Daugherty, P. S., et al. (1998) Protein Eng. 11(9):825-832, which is herein incorporated by reference. […] See Daugherty, P. S., et al. (1998) Protein Eng. 11(9):825-832; and Feldhaus, M. J., et al. (2003) Nat. Biotechnol. 21(2): 163-170, which are herein incorporated by reference. […] Apparent dissociation rate constants (kdiss) were determined for streptavidin, using about 1 to about 2 μM biotin as a competitor to prevent re-binding.
as §1

In assay [3] the target is T1, streptavidin. The experiment in a line: whole-cell dissociation by flow cytometry with biotin as competitor. Here is the method: (§2) To enable comparison of the phage and bacterial display peptides, a bacterial display clone was constructed with the insertion, […] (SEQ ID NO:65), and the KD and kdiss were measured in whole cell assays.
as §1

Assay [4] concerns the target T1, streptavidin. The experiment in a line: apparent whole-cell KD, flow cytometry with streptavidin-phycoerythrin. On the procedure:
as §2, §1
The source holds these as a separate data set.

Assay [5] addresses T1, streptavidin. The experiment in a line: equilibrium dissociation constant of a selected displayed peptide, whole-cell flow cytometry. On the procedure: as §1
In assay [6] the target is T1, streptavidin. The experiment in a line: whole-cell dissociation by flow cytometry (FIG. 10B), SA-7 against SA-1. Here is the method:
as §1

Assay [7] has as its target T1, streptavidin. The experiment in a line: selection from the E. coli OmpA display library.
Assay [8] has as its target T2, human C-reactive protein (human, UniProt P02741 19-224).
T2 construct: Biotinylated or labelled with Alexa Fluor 488; also called CRP; C-RP
T2 sequence (looked up): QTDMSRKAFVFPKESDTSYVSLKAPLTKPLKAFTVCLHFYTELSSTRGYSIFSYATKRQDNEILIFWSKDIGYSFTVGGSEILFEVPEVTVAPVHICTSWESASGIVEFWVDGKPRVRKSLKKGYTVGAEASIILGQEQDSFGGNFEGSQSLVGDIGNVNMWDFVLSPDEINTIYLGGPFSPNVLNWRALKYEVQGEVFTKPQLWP
The experiment in a line: equilibrium dissociation constant of a selected displayed peptide, whole-cell flow cytometry at various CRP concentrations. On the procedure: The library was first depleted of streptavidin binding peptides by incubation with streptavidin coated microbeads, e.g., from Qiagen, Inc. (Valencia, Calif.). Then the library was incubated with biotinylated human C-reactive protein at 10 nM final concentration, and two rounds of magnetic selection were used to enrich CRP binding peptides. […] Equilibrium binding affinities were measured in the whole cell format, by determining cell fluorescence at various concentrations of target CRP. See e.g. FIG. 17.
as §1, with “11(9):825-832, which is herein incorporated by reference.” left out

The target in assay [9] is T2, human C-reactive protein. The experiment in a line: apparent whole-cell KD, flow cytometry with CRP-Alexa Fluor 488. On the procedure:
as §1

Positions of bridges follow the written chain, without caps; N, C: chain ends. No end group written: not given here.

B1: SA-2 (peptide)
peptide: ICSYVMYTTCFLRVY
notes: Insert only
For B1, in the assay with streptavidin [1], the Kd stood at 8 nM. The koff (commonly a measure of how fast the partners let go of each other) in the assay with streptavidin [2] is about 0.001 s⁻¹.

B2: Clone HPQ (peptide)
peptide: SAECHPQGPPCIEGR
modifications: disulfide 4-11 (inferred)
notes: Insert only; also called cyclic HPQ clone
Regarding B2, in the assay with streptavidin [3], the “fold faster dissociation rate (kdiss) against clone SA-1” value was 20 fold. For the same molecule, in the assay with streptavidin [4], the “fold higher apparent KD against clone SA-1” value was found to be 5 fold.

B3: SA-3 (peptide)
peptide: TVLICMNICWTGETQ
notes: Insert only
For the molecule B3, the off-rate (koff) with streptavidin [3] was 0.0007 s⁻¹; with streptavidin [2] it was about 0.001 s⁻¹. The Kd with streptavidin [1] and in the assay with streptavidin [5] was 4 nM in each case.

B4: SA-7 (peptide)
peptide: NEWYCQNVCERMPHS
notes: Insert only
As for B4, the “fold difference of dissociation rate constant against SA-1” value with streptavidin [6] was found to be 4 fold. For the same molecule, the koff with streptavidin [2] was about 0.01 s⁻¹.

B5: SEQ ID NO 243 (peptide)
peptide: QVKLHPMAPVVPSHW
In the case of B5, in the assay with streptavidin [7], the binding result was “binds”.

B6: CRP-1 (peptide)
peptide: EWACNDRGFNCQLQR
modifications: not fully specified (bridges); cysteine pairing not given here
notes: Insert only; said to be a cyclic peptide (two cysteines)
In the case of B6, the Kd turned out to be 1.2 nM with human C-reactive protein [8] and 1 nM with human C-reactive protein [9].

The record behind these values is patent publication US20190264194A1 (published 2019).
